Source: US20230018670A1 (WIN THERAPEUTICS, published 2023)
“And” between values parts separate entries of the source, which are not always exact repeats. Identical values can stand only once.

T1: B7H3 (antigen of the 'B7H3 Octet' value)
T1 construct: antigen of the Octet measurement
T1 sequence (Q5ZPR3 whole entry, species assumed, looked up): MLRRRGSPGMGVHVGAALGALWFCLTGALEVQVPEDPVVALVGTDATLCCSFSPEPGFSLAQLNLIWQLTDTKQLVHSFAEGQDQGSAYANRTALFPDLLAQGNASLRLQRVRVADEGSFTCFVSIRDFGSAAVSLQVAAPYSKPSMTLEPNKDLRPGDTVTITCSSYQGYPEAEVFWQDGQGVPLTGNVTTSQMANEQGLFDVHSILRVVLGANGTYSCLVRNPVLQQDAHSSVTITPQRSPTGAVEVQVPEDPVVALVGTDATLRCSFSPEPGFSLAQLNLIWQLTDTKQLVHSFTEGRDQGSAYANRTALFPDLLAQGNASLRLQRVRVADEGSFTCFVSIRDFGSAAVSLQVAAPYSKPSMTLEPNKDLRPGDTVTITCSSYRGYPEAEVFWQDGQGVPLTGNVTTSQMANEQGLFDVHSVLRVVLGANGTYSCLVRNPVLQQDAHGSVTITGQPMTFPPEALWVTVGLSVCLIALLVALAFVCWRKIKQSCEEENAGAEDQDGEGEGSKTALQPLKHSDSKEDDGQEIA

T2: mB7H3 (endogenous mouse B7H3 on B16 and B78 cells) (mouse, UniProt Q8VE98)
T2 construct: B78 also carries GD2; also called murine B7H3
T2 sequence (receptor, looked up): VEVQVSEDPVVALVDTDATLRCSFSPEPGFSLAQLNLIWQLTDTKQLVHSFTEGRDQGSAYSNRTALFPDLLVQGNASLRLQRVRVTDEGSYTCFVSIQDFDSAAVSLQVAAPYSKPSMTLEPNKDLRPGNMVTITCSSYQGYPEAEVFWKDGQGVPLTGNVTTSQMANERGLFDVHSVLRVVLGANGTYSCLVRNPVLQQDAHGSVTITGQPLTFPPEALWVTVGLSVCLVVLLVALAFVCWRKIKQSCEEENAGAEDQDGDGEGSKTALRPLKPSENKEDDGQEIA


Experiments:
[1] = target: T1, B7H3 (antigen of the 'B7H3 Octet' value); assay: Octet, monovalent affinity of the B7H3 arm; construct measured and form of B7H3 not given
[2] = target: T3, B7 Homolog 3 (B7H3) on B78 melanoma tumor cells; assay: cell binding, RFU, B7H3 B78 cells (GD2 and human B7H3); both arms can bind
T3 construct: whole, on cells; In the PET study, tumours that were B7H3-positive and GD2-negative were also used; also called CD276; Cluster of Differentiation 276

[3] = target: T2, mB7H3 (endogenous mouse B7H3 on B16 and …); assay: flow cytometry on B16 cells (no GD2, mouse B7H3), GAH PE; anti-GD2 antibody as control

Binder | Kd [1] | EC50 [2] | binding result [3]
INV721 (bivalent bispecific anti-B7H3 x anti-GD2 antibody) (bispecific antibody, V domains shown, 89Zr-radiolabelled in the PET and biodistribution studies. An a-fucosylated version is used in FIG. 66., 89Zr-labelled in the in vivo PET study; also called I7-01/GD2-5/7; I7-01/GD2-7) VL 1: DIQMTQSPSSLSASVGDRVTITCRASQSVSSAVAWYQQKPGKAPKLLIYSASSLYSGVPSRFSGSRSGTDFTLTISSLQPEDFATYYCQQSGRSLYTFGQGTKVEIK VH 1: EVQLVESGGGLVQPGGSLRLSCAASGFTFSTYYIHWVRQAPGKGLEWVAWIHPSGKYTYYADSVKGRFTISADTSKNTAYLQMNSLRAEDTAVYYCARHYQVGAMDYWGQGTLVTVSS VL 2: DIQMTQSPSSLSASVGDRVTITCRSSQSLVHRNGNTYLHWYQQKPGKAPKLLIHKVSNRFSGVPSRFSGSGSGTDFTLTISSLQPEDFATYYCSQSTHVPPLTFGQGTKVEIK VH 2: EVQLVESGGGLVQPGGSLRLSCAASGSSFTGYNMNWVRQAPGKGLEWVAAIDPYYGGTYYADSVKGRFTISADTSKNTAYLQMNSLRAEDTAVYYCASGMEYWGQGTLVTVSS | 2.4 nM | 0.35 nM and 0.357 nM | 
Invenra GD2-5 (antibody, V domains shown, anti-GD2 antibody; stands here only as a control on B16 cells; also called GD2-05; anti-GD2 monoclonal antibody GD2-5) VH: EVQLVESGGGLVQPGGSLRLSCAASGSSFTGYNMNWVRQAPGKGLEWVAAIDPYYGGTYYADSVKGRFTISADTSKNTAYLQMNSLRAEDTAVYYCASGMEYWGQGTLVTVSS VL: DIQMTQSPSSLSASVGDRVTITCRSSQSLVHRNGNTYLHWYQQKPGKAPKLLIHKVSNRFSGVPSRFSGSGSGTDFTLTISSLQPEDFATYYCSQSTHVPPLTFGQGTKVEIK |  |  | no binding (tested: 1 ug antibody per million cells)
